From publication PMC8769549, “The intrinsically disordered SARS-CoV-2 nucleoprotein in dynamic complex with its viral partner nsp3a”

Target: N234 (nucleoprotein domains N2-N3-N4) (SARS-CoV-2 (NC_045512.2), UniProt P0DTC9 47-364)
Assay: NMR; 1D NMR; 100 uM RNA, 50 uM N234
Conditions: protein: recombinant; tags: N-terminal His6-TEV, cleaved; chain copies: 2; single strand

AAAAAA (ssRNA) [polyA hexameric RNA]: binds.
